The values that follow come from patent US20210163624A1 (Memorial Sloan Kettering, published 2021).

Experiment [1] addresses T1, HLA-A0201 molecule on T2 cells alone (no peptide pulsed) (human).
T1 construct: No exogenous peptide; It is also the MHC partner in the T2 stabilization assay; also called T2 alone; HLA-A2 molecule
Put plainly: flow cytometry, T2 cells without peptide (0 µg/ml point).

Experiment [2] addresses T2, WT1-A1 heteroclitic peptide (tyrosine at position 1 of RMF)/HLA-A0201 complex on T2 cells (human). Put plainly: flow cytometry, T2 cells pulsed with WT1-A1 peptide.
For experiment [3], the target named is WT1A1-B peptide (…)/HLA-A0201 complex on T2 cells (human). Put plainly: flow cytometry, T2 cells pulsed with WT1-A1-B peptide.
Experiment [4] concerns the target T3, RMF peptide (…)/HLA-A0201 complex on the cell surface (human).
T3 construct: Either on T2 cells pulsed with the synthetic peptide, or naturally processed and presented on WT1+ HLA-A0201+ tumour cells; The assay field of each row says which; also called WT1p/A2 complex; WT1/A2
Put plainly: radioimmunoassay with 125-I-labeled WT1 ab1 on JMN cells, Scatchard analysis (bivalent IgG1, avidity).

The target of experiment [5] is T4, EW peptide/HLA-A0201 complex on T2 cells (human).
T4 construct: also called Ewing sarcoma-derived peptide
Put plainly: flow cytometry on T2 cells pulsed with EW peptide.

Experiment [6] addresses T5, RHAMM-R3 peptide/HLA-A0201 complex on T2 cells (human).
T5 construct: also called RHAMM-3; R3/HLAA0201
Put plainly: flow cytometry, T2 cells pulsed overnight with graded RHAMM-R3 peptide.

Experiment [7] has as its target T6, Biotinylated single chain WT1 peptide/HLA-A0201 complex (recombinant, refolded) (human, biotinylated (site not stated)).
T6 construct: also called WT1/A2; HLA-A0201/WT1 peptide complex
Put plainly: kinetic binding analysis, sensorgram in nm against time (sec) with fit; column ka [1/Ms].

The target of experiment [8] is T6, Biotinylated single chain WT1 …. Put plainly: kinetic binding analysis, sensorgram in nm against time (sec) with fit; column kD [M].
For experiment [9] the target is unchanged. Put plainly: kinetic binding analysis, sensorgram in nm against time (sec) with fit; column kd [1/s]; Error in kd 2.25E-5.
The target in experiment [10] is T1, HLA-A0201 molecule on T2 cells alone …. Put plainly: T2 stabilization assay, HLA-A2 detected with mAb BB7.
The target of experiment [11] is T3, RMF peptide (…)/HLA-A0201 complex on …. Put plainly: flow cytometry, scFv phage on T2 cells pulsed with WT1A peptide; scFv phage on T2 cells pulsed with WT1-A (RMF) peptide, 50 µg/ml.
Experiment [12] concerns the target T1, HLA-A0201 molecule on T2 cells alone …. Put plainly: flow cytometry, scFv phage on T2 cells without peptide.
The target is the same in experiment [13]. Put plainly: flow cytometry, live T2 cells without peptide (0 µg/ml group).
The target in experiment [14] is T5, RHAMM-R3 peptide/HLA-A0201 complex on …. Put plainly: flow cytometry, live T2 cells pulsed with graded RHAMM-R3 peptide.
Experiment [15] concerns the target T2, WT1-A1 heteroclitic peptide (tyrosine …). Put plainly: flow cytometry, live T2 cells pulsed with graded WT1-A1 peptide.
In experiment [16] the target is T6, Biotinylated single chain WT1 …. Put plainly: kinetic binding analysis, sensorgram in nm against time (sec) with fit; column kd [1/s]; Error in kd 1.12E-4.
The target of experiment [17] is T5, RHAMM-R3 peptide/HLA-A0201 complex on …. Put plainly: phage ELISA on the recombinant R3/HLA-A0201 complex (R3), not on cells.
The target is the same in experiment [18]. Put plainly: flow cytometry, scFv phage on T2 cells pulsed with RHAMM-3 peptide.
For experiment [19], the target named is T3, RMF peptide (…)/HLA-A0201 complex on …. Put plainly: flow cytometry, scFv phage on T2 cells pulsed with WT1A peptide.

B1: WT1 ab1, full-length human IgG1 (antibody, V domains shown)
VH: QMQLVQSGAEVKEPGESLRISCKGSGYSFTNFWISWVRQMPGKGLEWMGRVDPGYSYSTYSPSFQGHVTISADKSTSTAYLQWNSLKASDTAMYYCARVQYSGYYDWFDPWGQGTLVTVSS
VL: not shown
notes: No single sentence says that WT1 ab1 is clone #13; also called Mab WT1 ab1; ESK1
In the case of B1, the binding result was “no binding (tested: mAb 1 µg/ml)” in experiment [1]; “no binding (tested: mAb concentration not on the sheet)” in [2]; “no binding (tested: mAb concentration not on the sheet)” in experiment [3]; “no binding” in experiment [5]; “no binding (tested: mAb 1 µg/ml; peptide 50 µg/ml)” in [6]. In experiment [4], this molecule came in with a Kd of about 0.2 nM.

B2: mAb 15 (mAb clone 15) (antibody, V domains shown)
VH: QVQLVQSGAEVKKPGESLKISCKGSGYNFSNKWIGWVRQLPGRGLEWIAIIYPGYSDITYSPSFQGRVTISADTSINTAYLHWHSLKASDTAMYYCVRHTALAGFDYWGLGTLVTVSS
VL: DIQMTQSPSTLSASVGDRVTITCRASQNINKWLAWYQQRPGKAPQLLIYKASSLESGVPSRFSGSGSGTEYTLTISSLQPDDFATYYCQQYNSYATFGQGTKVEIKR
notes: The legends call it mAb 15 or clone 15; also called Ext002 #15
B2: in experiment [7], the kon was 245000 M⁻¹ s⁻¹. Further, in [8], the Kd is 7.68 nM. In experiment [9], the koff is 0.00188 s⁻¹.

B3: WT1A1-B peptide (AMFPNAPYL) (peptide)
peptide: AMFPNAPYL
As for B3, the binding result in experiment [10] was “binds”.

B4: WT1-A1 heteroclitic peptide (tyrosine at position 1 of RMF) (peptide)
peptide: YMFPNAPYL
For the molecule B4, in experiment [10], the binding result is on record as “binds”.

B5: scFv phage clone 15 (scFv)
scFv: DIQMTQSPSTLSASVGDRVTITCRASQNINKWLAWYQQRPGKAPQLLIYKASSLESGVPSRFSGSGSGTEYTLTISSLQPDDFATYYCQQYNSYATFGQGTKVEIKRSRGGGGSGGGGSGGGGSLEMAQVQLVQSGAEVKKPGESLKISCKGSGYNFSNKWIGWVRQLPGRGLEWIAIIYPGYSDITYSPSFQGRVTISADTSINTAYLHWHSLKASDTAMYYCVRHTALAGFDYWGLGTLVTVSS
notes: also called Ext002 #15
Regarding B5, the binding result in [11] is reported as “binds”; in experiment [12], “no binding”.

B6: mAb 5 (mAb clone 5) (antibody, V domains shown)
VH: QVQLQQSGPGLVKPSQTLSLTCAISGDSVSSNSAAWNWIRQSPSRGLEWLGRTYYGSKWYNDYAVSVKSRITINPDTSKNQFSLQLNSVTPEDTAVYYCARGRLGDAFDIWGQGTMVTVSS
VL: not shown
notes: The legends call it mAb 5 or mAb clone 5; also called Ext002 #5
On to B6, for which the binding result in experiment [13] is “no binding (tested: mAb concentration not on the sheet)”; in experiment [14], “no binding”; in experiment [15] it was “no binding”. Moreover, in [7], the kon came to 468000 M⁻¹ s⁻¹. In addition, the Kd in [8] turned out to be 11.7 nM. The koff in experiment [16] was found to be 0.00548 s⁻¹.

B7: scFv phage clone 23 (scFv)
scFv: QSVLTQPPSVSGAPGQRVTISCTGSSSNIGAGYDVHWYQQLPGTAPKLLIYGNSNRPSGVPDRFSGSKSGTSASLAISGLQSEDEADYYCAAWDDSLNGYVFGTGTKLTVLGSRGGGGSGGGGSGGGGSLEMAEVQLVETGGGLLQPGGSLRLSCAASGFSVSGTYMGWVRQAPGKGLEWVALLYSGGGTYHPASLQGRFIVSRDSSKNMVYLQMNSLKAEDTAVYYCAKGGAGGGHFDSWGQGTLVTVSS
notes: also called Ext002 #23; EXT002-23
On to B7, for which the binding result in experiment [11] was “binds”; in [12], “no binding”; in [17], “no binding”.

B8: scFv phage clone 18 (scFv)
scFv: QSVVTQPPSVSVAPGKTARITCGRNNIGSKSVHWYQQKPGQAPVLVVYDDSDRPSGIPERFSGSNSGNTATLTISRVEAGDEADYYCQVWDSSSDHVVFGGGTKLTVLGSRGGGGSGGGGSGGSLEMAEVQLVQSGGGVVRPGGSLRLSCAASGFTFDDYGMSWVRQAPGKGLEWVSGINWNGGSTGYADSVRGRFTISRDNAKNSLYLQMNSLRAEDTALYYCARERGYGYHDPHDYWGQGTLVTVSS
notes: also called Ext002 #18
With B8, the values for the binding result in [11], in [12] and in [18] were “binds”, “no binding” and “no binding”, respectively.

B9: scFv phage clone 3 (scFv)
scFv: QTVVTQPPSASGTPGQRVTISCSGSSSNIGSNYVYWYQQLPGTAPKLLIYRSNQRPSGVPDRFSGSKSGTSASLAISGPRSVDEADYYCAAWDDSLNGVVFGGGTKLTVLGSRGGGGSGGGGSGGGSLEMAQVQLVQSGAEVKKPGSSVKVSCKASGGTFSSYAISWVRQAPGQGLEWMGGIIPIFGTANYAQKFQGRVTITADESTSTAYMELSSLRSEDTAVYYCARRIPPYYGMDVWGQGTTVTVSS
notes: also called Ext002 #3; EXT002-3
For the molecule B9, the values for the binding result in experiment [19], in [12] and in experiment [18] were “binds”, “no binding” and “no binding”, respectively.
